Where “and” joins values, the source holds several entries; their conditions need not be identical. Identical values can stand only once.
Columns and labels:
Conditions in all cases: both partners purified
[1] = biological target: T1, HSV-1F gB ectodomain (recombinant glycoprotein B of Herpes simplex virus 1 strain F, aa 30-729) (Herpes simplex virus 1 (strain F), UniProt P06436, biotin (EZ-Link NHS-PEG4-Biotin, gB monomer to biotin 1:3) in the BLI only); test: cryo-EM 2D class averages; recombinant HSV-1 gB trimers incubated with a 1:1 molar mixture of HDIT101 and HDIT102 Fabs; 2D classes calculated from micrographs
[2] = biological target: T1, HSV-1F gB ectodomain (recombinant …); test: BLI
[3] = biological target: T2, HSV-2G gB ectodomain (recombinant glycoprotein B of Herpes simplex virus 2 strain G, aa 22-724) (Herpes simplex virus 2 (strain G), biotin (EZ-Link NHS-PEG4-Biotin, gB monomer to biotin 1:3) in the BLI only); test: BLI
T2 construct: also called HSV-2 gB; recombinant HSV-2 gB; not shown: double Strep-tag, C-terminal, cleaved

[4] = biological target: T1, HSV-1F gB ectodomain (recombinant …); test: cryo-EM structure
[5] = biological target: T2, HSV-2G gB ectodomain (recombinant …); test: cryo-EM structure

B1: HDIT102 Fab (Fab, V domains shown)
VH: EVQLVQSGAEVKTPGASVRVSCKASGHTFRTFDINWVRQAAGQGLEWMGWMSPNSGNTGYARQFQGRVTMTRNISANTAYMELRGLRFDDTAVYYCARGPGSTGTTGSMDVWGQGTTVTVSS
VL: QAGLTQPPSVSVAPGKTARISCGGNNIGSKSVHWYQQKPGQAPVLVIYYDSDRPSGIPERFSGSNSGNTATLTISRVEAGDEADYYCQVWDSGSVVFGGGTKLTVL
stoichiometry N [1]: 3 Fab per gB trimer and 2 Fab per gB trimer | Kd [2]: 0.0895 nM | koff [2]: 8.85e-05 s⁻¹ | kon [2]: 992000 M⁻¹ s⁻¹ | Kd [3]: 0.0329 nM | koff [3]: 2.86e-05 s⁻¹ | kon [3]: 865000 M⁻¹ s⁻¹

B2: HDIT102 IgG (antibody, V domains shown)
VH: EVQLVQSGAEVKTPGASVRVSCKASGHTFRTFDINWVRQAAGQGLEWMGWMSPNSGNTGYARQFQGRVTMTRNISANTAYMELRGLRFDDTAVYYCARGPGSTGTTGSMDVWGQGTTVTVSS
VL: QAGLTQPPSVSVAPGKTARISCGGNNIGSKSVHWYQQKPGQAPVLVIYYDSDRPSGIPERFSGSNSGNTATLTISRVEAGDEADYYCQVWDSGSVVFGGGTKLTVL
notes: also called fully human IgG HDIT102; source: research grade quality, by contract manufacturer
kon [2]: 700000 M⁻¹ s⁻¹

B3: HDIT101 IgG (antibody, V domains shown)
VH: TLKESGPALVKPTQTLTLTCTFSGFSLSTSGMSVGWIRQPPGKALEWLAHIWWNNDKYYKPALKSRLTISKDTSKNQVVLTMTNMDPVDTATYYCARIYYGYRPYAMDYWGQGTLVTVSS
VL: IVMTQTPLSLPVTPGEPASISCRSSQSIVHSNGNTYLEWYLQKPGQSPQLLIYKVSNRFSGVPDRFSGSGSGTDFTLKISRVEAEDVGVYYCFQGSHVPWSFGQGTKLEIK
notes: also called humanized IgG HDIT101; source: GMP-grade, produced by Celonic Germany GmbH (contract manufacturer)
kon [2]: 500000 M⁻¹ s⁻¹

B4: HDIT101 Fab (Fab, V domains shown)
VH: TLKESGPALVKPTQTLTLTCTFSGFSLSTSGMSVGWIRQPPGKALEWLAHIWWNNDKYYKPALKSRLTISKDTSKNQVVLTMTNMDPVDTATYYCARIYYGYRPYAMDYWGQGTLVTVSS
VL: IVMTQTPLSLPVTPGEPASISCRSSQSIVHSNGNTYLEWYLQKPGQSPQLLIYKVSNRFSGVPDRFSGSGSGTDFTLKISRVEAEDVGVYYCFQGSHVPWSFGQGTKLEIK
notes: source: papain digestion of GMP-grade HDIT101 IgG1 (Celonic Germany GmbH), Pierce Fab Preparation Kit
stoichiometry N [1]: 1 Fab per gB trimer | Kd [2]: 7.26 nM | koff [2]: 0.00313 s⁻¹ | kon [2]: 435000 M⁻¹ s⁻¹ | Kd [3]: 18.1 nM | koff [3]: 0.00379 s⁻¹ | kon [3]: 212000 M⁻¹ s⁻¹ | stoichiometry N [4]: 3 Fab per gB trimer | stoichiometry N [5]: 3 Fab per gB trimer

— publication PMC11134845, “Development of a highly effective combination monoclonal antibody therapy against Herpes simplex virus” (Journal of Biomedical Science, 2024)
